B1: Cyclin-D1-binding protein 1 (Homo sapiens), O95273 (parent)
chain: MASATAPAAAVPTLASPLEQLRHLAEELRLLLPRVRVGEAQETTEEFNREMFWRRLNEAAVTVSREATTLTIVFSQLPLPSPQETQKFCEQVHAAIKAFIAVYYLLPKDQGITLRKLVRGATLDIVDGMAQLMEVLSVTPTQSPENNDLISYNSVWVACQQMPQIPRDNKAAALLMLTKNVDFVKDAHEEMEQAVEECDPYSGLLNDTEENNSDNHNHEDDVLGFPSNQDLYWSEDDQELIIPCLALVRASKACLKKIRMLVAENGKKDQVAQLDDIVDISDEISPSVDDLALSIYPPMCHLTVRINSAKLVSVLKKALEITKASHVTPQPEDSWIPLLINAIDHCMNRIKELTQSELEL
partner: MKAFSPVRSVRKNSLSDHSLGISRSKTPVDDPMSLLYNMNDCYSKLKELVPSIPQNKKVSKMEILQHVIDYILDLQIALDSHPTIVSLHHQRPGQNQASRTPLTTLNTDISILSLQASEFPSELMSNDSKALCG
B2: Cyclin-D1-binding protein 1 (Homo sapiens), O95273 (parent)
chain: B1 chain

Variants of: B1
Conditions: with id2_human ID2, Q02363

effect of a mutation on the interaction	Variant
increasing interaction	MASATAPAAAVPTLASPLEQLRHLAEELRLLLPRVRVGEAQETTEEFNREMFWRRLNEAAVTVSREATTLTIVFSQLPLPSPQETQKFCEQVHAAIKAFIAVYYLLPKDQGITLRKLVRGATLDIVDGMAQLMEVLSVTPTQSPENNDLISYNSVWVACQQMPQIPRDNKAAALLMLTKNVDFVKDAHEEMEQAVEECDPYSGLLNDTEENNSDNHNHEDDVLGFPSNQDLYWSEDDQELIIPCLALVRASKACLKKIRMLVAENGKKDQVAQLDDIRDISDEISPSVDDLALSIYPPMCHLTVRINSAKLVSVLKKALEITKASHVTPQPEDSWIPLLINAIDHCMNRIKELTQSELEL [V278R]

Variants of: B1
Conditions: with id2_human ID2, Q02363
Remark: another data set of the same source

effect of a mutation on the interaction	Variant
increasing interaction	MASATAPAAAVPTLASPLEQLRHLAEELRLLLPRVRVGEAQETTEEFNREMFWRRLNEAAVTVSREATTLTIVFSQLPLPSPQETQKFCEQVHAAIKAFIAVYYLLPKDQGITLRKLVRGATLDIVDGMAQLMEVLSVTPTQSPENNDLISYNSVWVACQQMPQIPRDNKAAALLMLTKNVDFVKDAHEEMEQAVEECDPYSGLLNDTEENNSDNHNHEDDVLGFPSNQDLYWSEDDQELIIPCLALVRASKACLKKIRMLVAENGKKDQFAQLDDIVDISDEISPSVDDLALSIYPPMCHLTVRINSAKLVSVLKKALEITKASHVTPQPEDSWIPLLINAIDHCMNRIKELTQSELEL [V271F]

Variants of: B1
Conditions: with id2_human ID2, Q02363
Remark: another data set of the same source

effect of a mutation on the interaction	Variant
increasing interaction	MASATAPAAAVPTLASPLEQLRHLAEELRLLLPRVRVGEAQETTEEFNREMFWRRLNEAAVTVSREATTLTIVFSQLPLPSPQETQKFCEQVHAAIKAFIAVYYLLPKDQGITLRKLVRGATLDIVDGMAQLMEVLSVTPTQSPENNDLISYNSVWVACQQMPQIYRDNKAAALLMLTKNVDFVKDAHEEMEQAVEECDPYSGLLNDTEENNSDNHNHEDDVLGFPSNQDLYWSEDDQELIIPCLALVRASKACLKKIRMLVAENGKKDQVAQLDDIVDISDEISPSVDDLALSIYPPMCHLTVRINSAKLVSVLKKALEITKASHVTPQPEDSWIPLLINAIDHCMNRIKELTQSELEL [P166Y]

Variants of: B1
Conditions: with id2_human ID2, Q02363
Remark: another data set of the same source

effect of a mutation on the interaction	Variant
increasing interaction	MASATAPAAAVPTLASPLEQLRHLAEELRLLLPRVRVGEAQETTEEFNREMFWRRLNEAAVTVSREATTLTIVFSQLPLPSPQETQKFCEQVHAAIKAFIAVYYLLPKDQGITLRKLVRGATLDIVDGMAQLMEVLSVTPTQSPENNDLISYNSVWVACQQMPQIPRDEKAAALLMLTKNVDFVKDAHEEMEQAVEECDPYSGLLNDTEENNSDNHNHEDDVLGFPSNQDLYWSEDDQELIIPCLALVRASKACLKKIRMLVAENGKKDQVAQLDDIVDISDEISPSVDDLALSIYPPMCHLTVRINSAKLVSVLKKALEITKASHVTPQPEDSWIPLLINAIDHCMNRIKELTQSELEL [N169E]

Variants of: B2
Conditions: with ndf1_mouse Neurod1, Q60867
ndf1_mouse Neurod1, Q60867, sequence (Q60867 whole entry): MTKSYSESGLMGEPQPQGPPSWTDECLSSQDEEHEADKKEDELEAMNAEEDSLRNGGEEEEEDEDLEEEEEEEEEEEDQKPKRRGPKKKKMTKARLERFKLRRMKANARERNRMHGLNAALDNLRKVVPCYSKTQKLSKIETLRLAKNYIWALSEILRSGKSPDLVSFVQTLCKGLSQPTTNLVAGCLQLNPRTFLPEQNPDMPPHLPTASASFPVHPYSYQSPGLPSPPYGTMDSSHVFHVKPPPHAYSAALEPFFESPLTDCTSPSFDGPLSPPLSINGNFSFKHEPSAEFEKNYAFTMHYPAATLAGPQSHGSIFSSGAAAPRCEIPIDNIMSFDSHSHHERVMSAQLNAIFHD

effect of a mutation on the interaction	Variant
increasing interaction	MASATAPAAAVPTLASPLEQLRHLAEELRLLLPRVRVGEAQETTEEFNREMFWRRLNEAAVTVSREATTLTIVFSQLPLPSPQETQKFCEQVHAAIKAFIAVYYLLPKDQGITLRKLVRGATLDIVDGMAQLMEVLSVTPTQSPENNDLISYNSVWVACQQMPQIPRDNKAAALLMLTKNVDFVKDAHEEMEQAVEECDPYSGLLNDTEENNSDNHNHEDDVLGFPSNQDLYWSEDDQELIIPCLALVRASKACLKKIRMLVAENGKKDQVAQLDDIRDISDEISPSVDDLALSIYPPMCHLTVRINSAKLVSVLKKALEITKASHVTPQPEDSWIPLLINAIDHCMNRIKELTQSELEL [V278R]

Variants of: B2
Conditions: with ndf1_mouse Neurod1, Q60867
Remark: another data set of the same source

effect of a mutation on the interaction	Variant
increasing interaction	MASATAPAAAVPTLASPLEQLRHLAEELRLLLPRVRVGEAQETTEEFNREMFWRRLNEAAVTVSREATTLTIVFSQLPLPSPQETQKFCEQVHAAIKAFIAVYYLLPKDQGITLRKLVRGATLDIVDGMAQLMEVLSVTPTQSPENNDLISYNSVWVACQQMPQIPRDNKAAALLMLTKNVDFVKDAHEEMEQAVEECDPYSGLLNDTEENNSDNHNHEDDVLGFPSNQDLYWSEDDQELIIPCLALVRASKACLKKIRMLVAENGKKDQFAQLDDIVDISDEISPSVDDLALSIYPPMCHLTVRINSAKLVSVLKKALEITKASHVTPQPEDSWIPLLINAIDHCMNRIKELTQSELEL [V271F]

Variants of: B2
Conditions: with ndf1_mouse Neurod1, Q60867
Remark: another data set of the same source

effect of a mutation on the interaction	Variant
increasing interaction	MASATAPAAAVPTLASPLEQLRHLAEELRLLLPRVRVGEAQETTEEFNREMFWRRLNEAAVTVSREATTLTIVFSQLPLPSPQETQKFCEQVHAAIKAFIAVYYLLPKDQGITLRKLVRGATLDIVDGMAQLMEVLSVTPTQSPENNDLISYNSVWVACQQMPQIYRDNKAAALLMLTKNVDFVKDAHEEMEQAVEECDPYSGLLNDTEENNSDNHNHEDDVLGFPSNQDLYWSEDDQELIIPCLALVRASKACLKKIRMLVAENGKKDQVAQLDDIVDISDEISPSVDDLALSIYPPMCHLTVRINSAKLVSVLKKALEITKASHVTPQPEDSWIPLLINAIDHCMNRIKELTQSELEL [P166Y]

Variants of: B2
Conditions: with ndf1_mouse Neurod1, Q60867
Remark: another data set of the same source

effect of a mutation on the interaction	Variant
increasing interaction	MASATAPAAAVPTLASPLEQLRHLAEELRLLLPRVRVGEAQETTEEFNREMFWRRLNEAAVTVSREATTLTIVFSQLPLPSPQETQKFCEQVHAAIKAFIAVYYLLPKDQGITLRKLVRGATLDIVDGMAQLMEVLSVTPTQSPENNDLISYNSVWVACQQMPQIPRDEKAAALLMLTKNVDFVKDAHEEMEQAVEECDPYSGLLNDTEENNSDNHNHEDDVLGFPSNQDLYWSEDDQELIIPCLALVRASKACLKKIRMLVAENGKKDQVAQLDDIVDISDEISPSVDDLALSIYPPMCHLTVRINSAKLVSVLKKALEITKASHVTPQPEDSWIPLLINAIDHCMNRIKELTQSELEL [N169E]

— IntAct's records for PubMed 22453338
